Assays:
ICAM-1 = ICAM-1 surface protein expression on NHBE cells by flow cytometry; assay type: cell-based, human; conditions: 100 ng/ml, 48 hours, mean±SD (n=4)
Experimental: FIG. 4. Effect of ML-1 on ICAM-1 surface expression on NHBE cells by Flow Cytometry. NHBE cells were treated for 48 hours under following conditions: medium only, rIL-17 (100 ng/ml), purified His-tagged protein (Positope, 100 ng/ml), or ML-1 (100 ng/ml) as indicated. The mean fluorescence intensity of ICAM-1 surface expression was measured. The experiment was conducted four times. The results shown are from a representative experiment. * p<0.01.
To determine whether ML-1 is able to induce ICAM-1 expression on NHBE cells, surface expression of ICAM-1 on NHBE cells was measured and the effects of ML-1 and IL-17 were compared.
NHBE cells were treated with IL-17 (100 ng/ml), ML-1 (100 ng/ml), or a control His protein (Positope, 100 ng/ml). The cells were harvested following treatment with 0.1% trypsin-0.02% EDTA at 37° C. for 6 minutes and suspended in PBS containing 2% BSA and 0.02 % sodium azide. One million cells were incubated with a mouse anti-human ICAM-1 monoclonal antibody (R&D Systems, Minneapolis, Minn.) on ice for 30 minutes. […] After three additional washes in PBS, the cells were resuspended in PBS and immediately analyzed with a FACScan flow cytometer (Becton Dickinson, Mountain View, Calif.). […] Indices are expressed as mean±SD (n=4).

ERK1/2 = experiment: Western blotting of ERK1/2 phosphorylation in PBECs; assay type: cell-based, human; conditions: ML-1 100 ng/ml
Experimental: FIGS. 6A-6D. Kinetic activation of ERK1/2 by ML-1 in PBECs (FIG. 6A) and HUVECs (FIG. 6B). The cells were incubated with or without ML-1 (100 ng/ml) for different time points as indicated. Western blotting analysis was performed by using antibodies against different MAP kinases as described in Example 8. FIGS. 6C and 6D. Effect of PD98059 on ML-1-induced phosphorylation of ERK1/2 in PBECs (FIG. 6C) and HUVECs (FIG. 6D). The cells were preincubated with PD98059 ([…]) or DMSO vehicle control for 1 hour, followed by stimulation of PBECs and HUVECs with medium or ML-1 for 20 minutes or 10 minutes, respectively. The results shown are representative of three separate experiments.
For analysis of activation of MAP kinases, PBECs were treated with IL-17 (100 ng/ml) for various time periods, with or without the MEK 1/2 inhibitor PD98059 ([…]; Calbiochem, La Jolla, Calif.) (15), the p38 inhibitor SB202190 (0.5-10 μM; ref. 16), or a vehicle control, DMSO (Me2SO) for 1 hour. […] Following the treatment, the cells were washed with ice-cold PBS. Cell pellets were immediately lysed in cold lysis buffer [20 mM Tris (pH 7.4), 4 mM EDTA, 2 mM EGTA, 1 mM PMSF, […] aprotinin, 200 mg/ml leupeptin, 50 mM NaF, 5 mM NaRP2O7, 1 mM Na3VO4, and 1% Nonidet P40; all purchased from Sigma]. Extracts (1×10^6 cell equivalents/lane) were suspended with an equal volume of 2× loading buffer [0.1 M Tris-HCl (pH 6.8)], 4% SDS, 0.005% bromophenol blue, and 20% glycerol) containing 2-ME (0.7 M) and subjected to 4-20% Tris-glycine gel electrophoresis (NOVEX, San Diego, Calif.). Gels were then transferred to PVDF membranes (BIO-RAD, Hercules, Calif.) with a Trans Blot apparatus (NOVEX). The membranes were immersed overnight in This-buffered saline/Tween 20 containing 5% nonfat dry skim milk (Carnation, Los Angeles, Calif.).
Immunoreactive proteins were detected using antibodies against various kinases and phosphorylated kinases. […] Western blotting detection reagents (Amersham) and Hyper ECL luminescence detection film (Amersham) were used. […]

B1: ML-1: new member of the IL-17 cytokine family, SEQ ID NO:2; His-tagged recombinant protein expressed in COS-7 cells and affinity purified (protein, listed as Homo sapiens)
chain: MKLDIGIINENQRVSMSRNIESRSTSPWNYTVTWDPNRYPSEVVQAQCRNLGCINAQGKEDISMNSVPIQQETLVVRRKHQGCSVSFQLEKVLVTVGCTCVTPVIHHVQ
modifications: His tag
- ICAM-1 surface expression, mean fluorescence intensity (MFI) (ICAM-1): 31.42±4.39
- time of maximum phosphorylation of ERK1/2 (ERK1/2): 20 min
- time of return of ERK1/2 phosphorylation to baseline levels (ERK1/2): ≤ 60 min
